In the supplement of paper PMC12764529:
± gives the half width of the 95% confidence interval.

assay: folding stability dG unfold from trypsin proteolysis; higher = more stable
Procedure, shortened: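 K50 was inferred by Bayesian fitting of sequencing counts obtained after protease digestion of designed mini-proteins. Unfolding free energy was derived by comparison with a sequence-predicted unfolded-state K50 and a shared folded-state K50, for each protease or both combined. The mini-proteins were under 80 residues, had no cysteine, were carried in a PA-tagged cDNA display construct, and were kept only if AlphaFold2 dimer inter-PAE exceeded 15.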

Row | Sequence | folding stability dG unfold
1 | SAGGSAGGSGSMEFTIDDEDLRIEIKFLPGGKVEITIWDPTNNVPLKTIETEPEEIEEVIEKLSAGGSAGGS [r20_129_JUSTAS] | 2.18 ± 0.17 kcal/mol
2 | SAGGSAGGSMKYYKTKDGKIVKAPPIETVKLKLKLEINGKKIEIEIEMSKEEIDKLLKELEKKSAGGSAGGS [r20_148_TrROS_Hall] | 0.717 ± 0.051 kcal/mol
3 | SAGGSAGGSAGGNPPDWKPVGEEEFPIPNPNGMQIKISVWTIRAPDDGKSASFIDIEMYPSAGGSAGGSAGG [r7_546_TrROS] | 1.19 ± 0.07 kcal/mol
4 | SAGGSAGGSAGVIVTPEGDRIVTYDPNTGSVTVTPLDAAGNPLTTTVVAPNGPVVTVTELSAGGSAGGSAGG [r17_385_JUSTAS] | 1.66 ± 0.055 kcal/mol
5 | SAGGSAGGSAGMPIEKALEQADKNGRPVQIRVPNGRDIYITVKYKNGKYKIEIMPAEEIKSAGGSAGGSAGG [r17_463_TrROS] | 1.09 ± 0.047 kcal/mol
6 | MEEEEKKKAETPEIPEEVAREKALEVARELGLEEIEEIEVLSASPEGYVTVRITLPTGGEVEITIPISELES [r1_435_JUSTAS] | 2.01 ± 0.13 kcal/mol
7 | SAGGSAGGSAGGLTFRLPDGTRVRVRVELNEDGELRITVEVEPLPPPPPKVEFYSEEELKSAGGSAGGSAGG [r7_660_TrROS_Hall] | 2.72 ± 0.076 kcal/mol
8 | SAGGSSVSSVTLLSSETYTEGEKTFKRTTYLVPLPDGTTAIVTTEETTPPENPPEVEVSSSTTPLPGSAGGS [r16_121_JUSTAS] | 1.25 ± 0.044 kcal/mol
9 | SAGFYFRITEITVNPDAGKLTIRNPNGQEQEIPPGGKISIKMRFYRFNDNGGKPETFEMEHTIPIPPGDSAG [r14_366_TrROS] | 2.62 ± 0.042 kcal/mol
10 | SAGGAPVTVREEELPENSKLITIEYPDGLTLEVLEYPDKVLVREWDTATGKELSSRTLTHEELEKLLSAGGS [r8_476_JUSTAS] | 1.81 ± 0.052 kcal/mol
11 | SAGGSMDLRVVVVGEDGKVLELPAGEEVSLPDVVAFFSELGDFEVEAHPESGTLTIRVPKGVLEEASAGGSA [r2_164_TrMRF] | 0.543 ± 0.02 kcal/mol
12 | SAGMKTYTITVPASEAEEAAEKAAEEIKKELGLPDSDTVEVTVTSYDPKTGTVTITITVTRPLPGGLSLSAG [r5_537_JUSTAS] | 2.74 ± 0.13 kcal/mol
13 | SMKIKIEKVEDGYYKIKIYDKKTKKEYTIIVPKNMKPGQVELVNRNGKKITMTLEEIKKLLPPGAEVEIVSA [r9_250_TrROS_Hall] | 2.01 ± 0.074 kcal/mol
14 | SAGGSMIEEAIEEALKKGLEKVEIEVEVEVNGKIYRVKMEIVKVEEGKVEIKIEVEEIDPETGKLISAGGSA [r2_420_TrROS_Hall] | 2.54 ± 0.13 kcal/mol
15 | SAGASPGVRLTERSEEVIEVEPGEKEKLKEEIKKSEKKYPGGLTEKVEYEVDPNSNKVTITITTTTGLSAGG [r19_45_JUSTAS] | -0.351 ± 0.23 kcal/mol
16 | SAGGSAGGPIDLDDIKIEEIEHERNPNGMMYHEVTIRFPGGKIPVWFHPNMSLDNAVDMLRAFISAGGSAGG [r6_233_TrROS] | 1.4 ± 0.092 kcal/mol

Row | Sequence | folding stability dG unfold
17 | SAGRKIPIMFTWPNGDPERMEEIAIEFANYLQPNGLPNVTIKIERKPVKDPENGKRRYVYMVTIEVQPPSAG [r5_49_TrROS] | 1.92 ± 0.043 kcal/mol
18 | SAGGSAGGSAGMVITLPNGEKVEITFDKENKKITITFPDGKKVEIEIEGMSLEEILKALKSAGGSAGGSAGG [r11_729_TrROS_Hall] | 3.84 ± 0.14 kcal/mol
19 | SKNKVEITIPMPYSQAREIARQLGLPPEKFKDPKDLVDWLKDLFPKDVKIRIQPMKPVTEEERRARQNGKSA [r9_74_TrROS] | 0.817 ± 0.12 kcal/mol
20 | SAGGSAGGMKVIEIDLPDGSKLKIVIYKDGTLPAYLPEGNKVIVLEIDKNGKIKSVKVFDAKDISAGGSAGG [r6_81_TrMRF] | 2.87 ± 0.16 kcal/mol
21 | SAGGSAGGSGGKPLLIFTAMNGPEAEELVKKLLEEGGAGPIVAVVIPAPKDDPLFKEFFEKLKSAGGSAGGS [r12_649_TrMRF] | 0.935 ± 0.073 kcal/mol
22 | SAYKITIKITITDPVTGETTTITVELISSEEEAKKEAEKLAASYPGKKVTIDLVEVVPVPPLSEEELKLSSA [r9_421_JUSTAS] | 1.91 ± 0.081 kcal/mol
23 | SAGGSAGGSAGMEIEEKGDYLVIRIKVKEGETIELPEGWEVVDVEYDPETEEVTIVIRRKSAGGSAGGSAGG [r11_942_TrROS_Hall] | 4.38 ± 0.18 kcal/mol
24 | SAGMNLSPEEIAERIREEAKKKYPNSEVEVRIVSQPPTTIVLEVKITIYFPEEGGSIIEEPRVITIDRLSAG [r14_187_JUSTAS] | 2.05 ± 0.076 kcal/mol
25 | SAGGSAGGKKFKPGQVVLDPKTKELYVIKGEVTVKEDGSLSIKVEKVKLPKPKKLTKEQLEKLKSAGGSAGG [r6_771_TrROS_Hall] | 0.687 ± 0.067 kcal/mol
26 | SAGGSASLEEVASLPASALAAAAGLTALSVEVTREPDGTVTVTIETRPPDGPVVTVTYTFPVDPAASAGGSA [r15_805_JUSTAS] | 0.848 ± 0.2 kcal/mol
27 | SAGGSAGGSAGGGKPVKVIVVEVGGKKVLVTFDEDTGKLTVYNLDTGKTETVTVSPEDLSAGGSAGGSAGGS [r10_669_TrROS_Hall] | 1.83 ± 0.12 kcal/mol
28 | SAGGSAGGSAGGSMTSIKITYPDGSTKSASVSVDPNTGKVTTTFTDYTLSPDAKFTTISSAGGSAGGSAGGS [r10_306_JUSTAS] | 0.372 ± 0.027 kcal/mol
29 | SAGGSAGGSAGEEFIKKIPPGAEVKPITPLESEGKVYVKITVKKKDENGKWTEEEFIFKVSAGGSAGGSAGG [r17_140_JUSTAS] | 1.17 ± 0.072 kcal/mol
30 | SAGGSAGGSAGGPNPDMKFEIVTIKVPPDEVPKSEPIEDPDGHNFFLHFDGNTYTIWRMDSAGGSAGGSAGG [r7_97_TrROS] | 0.987 ± 0.086 kcal/mol
31 | SAGGSAGGSLKPFPIEDITVQPRRNPDGNRYYQVSIRIKGPGRPINIPFPMDNPKKFLEDIIKSAGGSAGGS [r20_238_TrROS] | 0.519 ± 0.081 kcal/mol
